Results taken from the RNAGym collection of RNA variant scans (doi:10.7554/elife.80360).

B1: HDV Ribozyme (parent)
chain: GGCCGGCAUGGUCCCAGCCUCCUCGCUGGCGCCGGCUGGGCAACAUUCCGAGGGGACCGUCCCCUCGGUAAUGGCGAAUGGGACCCA

Variants of: B1
Assay: self-cleavage, relative activity (ratio to wild type); higher = more cleavage; co-transcriptional

| Variant | self-cleavage |
| --- | --- |
| C22U C61G | 0.545 |
| C22U C62U | 0.842 |
| C22U C63G | 0.782 |
| C22U C64A | 0.786 |
| C22U C66G | 0.814 |
| C22U C66U | 0.604 |
| C22U C75G | 0.208 |
| C22U C84A | 0.408 |
| C22U C85G | 0.811 |
| C22U C86G | 0.692 |
| C22U G25A | 0 |
| C22U G25U | 0.0287 |
| C22U G28A | 0.0804 |
| C22U G28C | 0 |
| C22U G31A | 0.22 |
| C22U G39C | 0.115 |
| C22U G39U | 0.163 |
| C22U G50C | 0.671 |
| C22U G52A | 0.709 |
| C22U G53C | 0.63 |
| C22U G54U | 0.808 |
| C22U G55U | 0.732 |
| C22U G59C | 0.566 |
| C22U G67A | 0.522 |

| Variant | self-cleavage |
| --- | --- |
| C22U G67C | 0.535 |
| C22U G73C | 0.256 |
| C22U G73U | 0.157 |
| C22U G74C | 0.157 |
| C22U G76A | 0.643 |
| C22U G76U | 0.794 |
| C22U G82U | 0.23 |
| C22U U27A | 0.227 |
| C22U U27C | 0.312 |
| C22U U46G | 0.192 |
| C22U U60A | 0.623 |
| C22U U60C | 0.767 |
| C22U U60G | 0.944 |
| C22U U65C | 0.78 |
| C22U U72A | 0.219 |
| C22U U72G | 0.17 |
| C22U U79C | 0.198 |
| C22U U79G | 0.178 |
| U23A A42C | 0.253 |
| U23A A56U | 1.08 |
| U23A A70U | 0.962 |
| U23A A71C | 0.712 |
| U23A A77C | 0.332 |
| U23A A77U | 0.567 |

| Variant | self-cleavage |
| --- | --- |
| U23A A78C | 0.219 |
| U23A A83C | 0.508 |
| U23A C24A | 0.623 |
| U23A C24U | 0.199 |
| U23A C30G | 0 |
| U23A C36U | 0.671 |
| U23A C41A | 1.07 |
| U23A C57A | 1.09 |
| U23A C57G | 1.06 |
| U23A C57U | 0.812 |
| U23A C61A | 1.03 |
| U23A C61G | 1.08 |
| U23A C62G | 0.776 |
| U23A C63U | 0.96 |
| U23A C64A | 0.814 |
| U23A C66G | 0.787 |
| U23A C75U | 0.346 |
| U23A C85U | 0.98 |
| U23A C86A | 1.21 |
| U23A G25A | 0.277 |
| U23A G31A | 0.489 |
| U23A G35A | 0.864 |
| U23A G39C | 0.204 |
| U23A G40U | 0.769 |

| Variant | self-cleavage |
| --- | --- |
| U23A G55U | 0.976 |
| U23A G73U | 0.464 |
| U23A G74U | 0.348 |
| U23A G76C | 1.1 |
| U23A U27C | 0.575 |
| U23A U60C | 1.16 |
| U23A U69G | 0.911 |
| U23A U79G | 0.665 |
| U23C A45G | 0.8 |
| U23C A45U | 0.675 |
| U23C A51G | 0.978 |
| U23C A51U | 1.15 |
| U23C A87G | 0.855 |
| U23C C24G | 0.0437 |
| U23C C24U | 0.57 |
| U23C C26G | 1.05 |
| U23C C30G | 0.0437 |
| U23C C30U | 0.755 |
| U23C C36U | 0.365 |
| U23C C41G | 0.201 |
| U23C C57A | 0.849 |
| U23C C61A | 0.982 |
| U23C C75G | 0.148 |
| U23C C85U | 0.849 |

| Variant | self-cleavage |
| --- | --- |
| U23C G28A | 0.0396 |
| U23C G29C | 0.0475 |
| U23C G31A | 0.266 |
| U23C G31U | 0.151 |
| U23C G34A | 0.0898 |
| U23C G35A | 0.655 |
| U23C G35C | 0.115 |
| U23C G53U | 0.938 |
| U23C G55A | 0.814 |
| U23C G67A | 0.927 |
| U23C G68C | 0.727 |
| U23C G74U | 0.554 |
| U23C G80A | 0.394 |
| U23C G80C | 0.188 |
| U23C G80U | 0.16 |
| U23C G81C | 0.249 |
| U23C U27G | 1.06 |
| U23C U47C | 1.04 |
| U23C U47G | 1.28 |
| U23C U60G | 0.798 |
| U23C U69A | 0.8 |
| U23C U69G | 0.739 |
| U23C U72C | 0.665 |
| U23C U79G | 0.883 |

| Variant | self-cleavage |
| --- | --- |
| U23G A43U | 0.219 |
| U23G A45C | 0.151 |
| U23G A45G | 0.962 |
| U23G A70U | 0.492 |
| U23G A78G | 0.262 |
| U23G A78U | 0.0875 |
| U23G A87U | 0.715 |
| U23G C24A | 0.706 |
| U23G C24U | 0.314 |
| U23G C26G | 0.831 |
| U23G C32G | 0.237 |
| U23G C33A | 0 |
| U23G C36G | 0.252 |
| U23G C36U | 0.386 |
| U23G C41U | 0.723 |
| U23G C44G | 0.277 |
| U23G C48G | 0.361 |
| U23G C48U | 0.731 |
| U23G C49G | 0.346 |
| U23G C58G | 0.72 |
| U23G C58U | 0.582 |
| U23G C61G | 0.628 |
| U23G C62G | 0.453 |
| U23G C63A | 0.623 |

| Variant | self-cleavage |
| --- | --- |
| U23G C66A | 0.724 |
| U23G C75A | 0 |
| U23G C75G | 0.111 |
| U23G G25U | 0.0594 |
| U23G G28C | 0 |
| U23G G29U | 0 |
| U23G G34U | 0.0959 |
| U23G G39A | 0.17 |
| U23G G40U | 0.431 |
| U23G G52C | 0.807 |
| U23G G55C | 0.748 |
| U23G G67U | 0.789 |
| U23G G74A | 0.0489 |
| U23G G76C | 0.684 |
| U23G G80A | 0.134 |
| U23G G80U | 0.129 |
| U23G U37C | 0.751 |
| U23G U37G | 0.217 |
| U23G U60A | 0.831 |
| U23G U65C | 0.864 |
| U23G U69C | 0.598 |
| U23G U79A | 0.322 |
| C24A A43C | 0.0415 |
